Measurements reported in patent US7057012 (dated 2006).

Molecular target: human PTH-2 receptor (human, UniProt P49190 25-550)
Experiment: competition binding vs 125I-rPTH(1-34), COS-7 cells

Chain of human PTH-2 receptor (P49190 25-550): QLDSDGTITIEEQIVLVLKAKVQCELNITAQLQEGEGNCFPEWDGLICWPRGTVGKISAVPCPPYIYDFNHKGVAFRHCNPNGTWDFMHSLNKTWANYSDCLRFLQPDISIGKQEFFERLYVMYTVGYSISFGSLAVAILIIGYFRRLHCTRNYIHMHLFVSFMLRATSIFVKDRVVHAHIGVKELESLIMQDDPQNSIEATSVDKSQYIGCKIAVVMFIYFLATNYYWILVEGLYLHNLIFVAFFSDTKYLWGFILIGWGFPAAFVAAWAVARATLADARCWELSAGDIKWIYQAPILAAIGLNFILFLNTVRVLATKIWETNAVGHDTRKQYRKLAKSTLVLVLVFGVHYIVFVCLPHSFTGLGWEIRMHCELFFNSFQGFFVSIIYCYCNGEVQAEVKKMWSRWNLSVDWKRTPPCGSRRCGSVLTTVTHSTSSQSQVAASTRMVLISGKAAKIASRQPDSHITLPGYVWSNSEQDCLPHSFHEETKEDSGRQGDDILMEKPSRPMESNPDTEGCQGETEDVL

| IC50 | Binder |
| --- | --- |
| 600 nM | SMERVAWLRKKLQDV [PTH(17-31) 22 Glu→Ala] |
| 1500 nM | SAERVEWLRKKLQDV [PTH(17-31) 18 Met→Ala] |
| 1000 nM | SMERVEWLRKKLQDV [PTH(17-31)] |
| 67500 nM | SMERVEWARKKLQDV [PTH(17-31) 24 Leu→Ala] |
| 3800 nM | SMERVEWLAKKLQDV [PTH(17-31) 25 Arg→Ala] |
| 700 nM | SMARVEWLRKKLQDV [PTH(17-31) 19 Glu→Ala] |
| 90500 nM | SMEAVEWLRKKLQDV [PTH(17-31) 20 Arg→Ala] |
| 1100 nM | SMERVEWLRKKLQAV [PTH(17-31) 30 Asp→Ala] |
| 1100 nM | SMERVEWLRKALQDV [PTH(17-31) 27 Lys→Ala] |
| 8300 nM | SMERVEWLRAKLQDV [PTH(17-31) 26 Lys→Ala] |
| 1500 nM | AMERVEWLRKKLQDV [PTH(17-31) 17 Ser→Ala] |
| > 100000 nM | SMERVEALRKKLQDV [PTH(17-31) 23 Trp→Ala] |
| 900 nM | SMERVEWLRKKLADV [PTH(17-31) 29 Gln→Ala] |
| 9900 nM | SMERVEWLRKKAQDV [PTH(17-31) 28 Leu→Ala] |
| 1700 nM | SMERAEWLRKKLQDV [PTH(17-31) 21 Val→Ala] |
| 3800 nM | SMERVEWLRKKLQDA [PTH(17-31) 31 Val→Ala] |
